T1: MBP-RacA (B. subtilis, UniProt P45870 1-184)
T1 sequence: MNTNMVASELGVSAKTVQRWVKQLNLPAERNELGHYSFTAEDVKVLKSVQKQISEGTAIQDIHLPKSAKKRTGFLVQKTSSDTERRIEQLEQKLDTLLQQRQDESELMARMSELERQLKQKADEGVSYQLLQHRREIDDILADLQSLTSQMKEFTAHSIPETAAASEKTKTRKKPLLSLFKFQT


Experiments:
MBP-RacA = molecular target: T1, MBP-RacA; test: density gradient flotation with liposomes
SEC = molecular target: the molecule itself; test: SEC

binding result (MBP-RacA) | Binder | binding result (SEC)
binds | DivIVA (natural protein) MPLTPNDIHNKTFTKSFRGYDEDEVNEFLAQVRKDYEIVLRKKTELEAKVNELDERIGHFANIEETLNKSILVAQEAAEDVKRNSQKEAKLIVREAEKNADRIINESLSKSRKIAMEIEELKKQSKVFRTRFQMLIEAQLDLLKNDDWDHLLEYEVDAVFEEKE | –
– | DivIVA-MBP (natural protein) MPLTPNDIHNKTFTKSFRGYDEDEVNEFLAQVRKDYEIVLRKKTELEAKVNELDERIGHFANIEETLNKSILVAQEAAEDVKRNSQKEAKLIVREAEKNADRIINESLSKSRKIAMEIEELKKQSKVFRTRFQMLIEAQLDLLKNDDWDHLLEYEVDAVFEEKE | binds
– | ΔC-DivIVA-MBP (domain or fragment) MPLTPNDIHNKTFTKSFRGYDEDEVNEFLAQVRKDYEIVLRKKTELEAKVNELDERIGHFANIEETLNKSILVAQEAAEDVKRNSQKEAKLIVREAEKNADRIINESLSKSRKIAMEIEELKKQSKVFRTRFQMLIEAQLDLLK | binds
– | ΔN-DivIVA-MBP (domain or fragment) RKKTELEAKVNELDERIGHFANIEETLNKSILVAQEAAEDVKRNSQKEAKLIVREAEKNADRIINESLSKSRKIAMEIEELKKQSKVFRTRFQMLIEAQLDLLKNDDWDHLLEYEVDAVFEEKE | binds
